Test results published in PMC11100828.

Target: human Nup153^CTD (C-terminal domain, aa 896-1485), MBP and SNAP-tag fusion protein (human)
Experiment: negative-stain TEM, occupancy of NuPODs by capsids

Substance: HBV capsids assembled in vitro from wild type HBV core protein (HBc) (from UniProt P03146 1-183) (complex)
- percent of NuPODs occupied by at least one capsid: 90%
